Laboratory results taken from patent US20050004011A1, “Compositions and methods for treating bacterial infections with protein-dalbavancin complexes” (priority 2002, published 2005).
Several values for one entry are separate records, joined by “and”; a condition that tells them apart may be missing. Identical values can stand only once. Like-named read-outs stand apart in the source and are kept apart here.

Columns and labels:
[1] = target: N,N′-diacetyl-Lys-D-Ala-D-Ala; test: ITC, preliminary experiments, no serum proteins
[2] = target: Human serum albumin (human) (UniProt P02768); test: ITC, 25 C, single-site model
Dog albumin (dog) [3] = target: Dog albumin (dog) (UniProt P49822); test: ITC, 25 C, single-site model
Chain of Dog albumin (dog) (P49822 25-608 limits assumed): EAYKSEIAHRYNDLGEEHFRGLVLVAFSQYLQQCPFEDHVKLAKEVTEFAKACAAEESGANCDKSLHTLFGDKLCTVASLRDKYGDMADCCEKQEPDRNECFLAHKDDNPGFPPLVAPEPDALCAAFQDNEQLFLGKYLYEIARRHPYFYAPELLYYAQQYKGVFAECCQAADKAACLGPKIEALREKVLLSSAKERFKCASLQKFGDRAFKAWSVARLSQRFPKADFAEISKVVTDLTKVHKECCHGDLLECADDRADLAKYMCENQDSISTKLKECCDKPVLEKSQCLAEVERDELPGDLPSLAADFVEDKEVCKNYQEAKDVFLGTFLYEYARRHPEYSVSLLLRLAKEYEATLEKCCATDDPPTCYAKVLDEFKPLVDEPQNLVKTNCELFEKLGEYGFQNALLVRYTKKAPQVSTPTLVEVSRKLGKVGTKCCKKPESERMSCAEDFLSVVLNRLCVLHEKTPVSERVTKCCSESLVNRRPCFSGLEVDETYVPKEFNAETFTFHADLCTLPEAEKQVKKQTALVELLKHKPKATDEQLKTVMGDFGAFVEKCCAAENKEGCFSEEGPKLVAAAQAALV

Rat albumin (rat) [4] = target: Rat albumin (rat) (UniProt P02770); test: ITC, 25 C, single-site model
Chain of Rat albumin (rat) (P02770 25-608 limits assumed): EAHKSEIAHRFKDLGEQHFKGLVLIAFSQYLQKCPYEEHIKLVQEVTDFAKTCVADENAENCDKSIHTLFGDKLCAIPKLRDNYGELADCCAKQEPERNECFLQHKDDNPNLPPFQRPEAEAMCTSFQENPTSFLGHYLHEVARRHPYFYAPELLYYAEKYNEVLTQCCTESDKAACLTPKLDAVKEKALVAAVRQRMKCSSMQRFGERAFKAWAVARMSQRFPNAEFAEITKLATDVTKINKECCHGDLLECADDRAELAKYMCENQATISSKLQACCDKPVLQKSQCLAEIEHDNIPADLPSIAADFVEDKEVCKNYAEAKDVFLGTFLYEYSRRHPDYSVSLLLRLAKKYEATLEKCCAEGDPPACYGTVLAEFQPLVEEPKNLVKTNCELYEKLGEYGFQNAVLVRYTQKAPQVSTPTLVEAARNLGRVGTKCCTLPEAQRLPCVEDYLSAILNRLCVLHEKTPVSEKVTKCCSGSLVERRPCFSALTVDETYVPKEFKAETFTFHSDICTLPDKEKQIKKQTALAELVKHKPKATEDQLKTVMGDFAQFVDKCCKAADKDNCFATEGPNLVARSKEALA

Bovine albumin (bovine) = Bovine albumin (bovine) (UniProt P02769); test: ITC, 25 C, single-site model
Chain of Bovine albumin (bovine) (P02769 25-607 limits assumed): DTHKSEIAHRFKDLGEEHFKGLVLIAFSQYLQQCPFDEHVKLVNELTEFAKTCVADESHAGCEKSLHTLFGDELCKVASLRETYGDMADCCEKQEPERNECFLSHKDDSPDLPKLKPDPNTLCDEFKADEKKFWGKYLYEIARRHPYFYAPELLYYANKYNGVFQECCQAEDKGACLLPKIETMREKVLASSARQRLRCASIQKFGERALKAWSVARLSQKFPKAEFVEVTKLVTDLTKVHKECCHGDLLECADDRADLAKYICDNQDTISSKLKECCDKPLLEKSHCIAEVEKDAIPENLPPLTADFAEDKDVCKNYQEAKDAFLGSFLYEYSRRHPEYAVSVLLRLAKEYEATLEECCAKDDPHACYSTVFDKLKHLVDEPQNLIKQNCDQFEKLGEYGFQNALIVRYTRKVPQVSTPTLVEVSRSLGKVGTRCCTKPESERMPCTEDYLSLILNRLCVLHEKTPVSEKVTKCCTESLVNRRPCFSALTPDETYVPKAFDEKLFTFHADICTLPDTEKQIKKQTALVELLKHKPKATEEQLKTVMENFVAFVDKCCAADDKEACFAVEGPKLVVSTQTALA

[5] = target: Human α-glycoprotein (human) (UniProt P02763); test: ITC, 25 C, single-site model
Chain of Human α-glycoprotein (human) (P02763 19-201): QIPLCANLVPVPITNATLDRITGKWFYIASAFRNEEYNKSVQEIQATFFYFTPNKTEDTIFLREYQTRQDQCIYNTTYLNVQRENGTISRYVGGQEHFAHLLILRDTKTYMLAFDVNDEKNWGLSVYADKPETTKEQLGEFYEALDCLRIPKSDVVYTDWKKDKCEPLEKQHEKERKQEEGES

[6] = target: N,N′-diacetyl-Lys-D-Ala-D-Ala
[7] = target: Human α-glycoprotein (human) (UniProt P02763); test: calculated from ITC Ka; antibiotic 1 µM, α-glycoprotein 1.5x10^-5 M assumed
[8] = target: Human serum albumin (human) (UniProt P02768); test: calculated from ITC Ka; antibiotic 100 µM, HSA 6x10^-4 M assumed
[9] = target: N,N′-diacetyl-Lys-D-Ala-D-Ala; test: ITC, 25 C, no HSA, average
[10] = target: Human α-glycoprotein (human) (UniProt P02763); test: calculated from ITC Ka; antibiotic 100 µM, α-glycoprotein 1.5x10^-5 M assumed
[11] = target: N,N′-diacetyl-Lys-D-Ala-D-Ala; test: ITC, 37 C, HSA 0 µM
[12] = target: Human α-glycoprotein (human) (UniProt P02763); test: calculated from ITC Ka; antibiotic 250 µM, α-glycoprotein 1.5x10^-5 M assumed
[13] = target: N,N′-diacetyl-Lys-D-Ala-D-Ala; test: ITC, 25 C, HSA 104 µM present
[14] = target: N,N′-diacetyl-Lys-D-Ala-D-Ala; remark: listed apart in the source
[15] = target: Human serum albumin (human) (UniProt P02768); test: calculated from ITC Ka; antibiotic 10 µM, HSA 6x10^-4 M assumed
[16] = target: N,N′-diacetyl-Lys-D-Ala-D-Ala; test: ITC, 25 C, HSA 288 µM present
[17] = target: N,N′-diacetyl-Lys-D-Ala-D-Ala; test: ITC, 37 C, HSA 516 µM present
[18] = target: Human serum albumin (human) (UniProt P02768); test: calculated from ITC Ka; antibiotic 165 µM, HSA 6x10^-4 M assumed
[19] = target: Human serum albumin (human) (UniProt P02768); test: calculated from ITC Ka; antibiotic 1 µM, HSA 6x10^-4 M assumed
[20] = target: N,N′-diacetyl-Lys-D-Ala-D-Ala; test: ITC, 10 C, no HSA, average
[21] = target: Human α-glycoprotein (human) (UniProt P02763); test: calculated from ITC Ka; antibiotic 500 µM, α-glycoprotein 1.5x10^-5 M assumed
[22] = target: N,N′-diacetyl-Lys-D-Ala-D-Ala; remark: listed apart in the source
[23] = target: Human α-glycoprotein (human) (UniProt P02763); test: calculated from ITC Ka; antibiotic 165 µM, α-glycoprotein 1.5x10^-5 M assumed
[24] = target: N,N′-diacetyl-Lys-D-Ala-D-Ala; test: ITC, 25 C, HSA 430 µM present
[25] = target: Human serum albumin (human) (UniProt P02768); test: calculated from ITC Ka; antibiotic 250 µM, HSA 6x10^-4 M assumed
[26] = target: N,N′-diacetyl-Lys-D-Ala-D-Ala; test: ITC, 25 C, apparent Kdiss plateau at high HSA
[27] = target: Human serum albumin (human) (UniProt P02768); test: calculated from ITC Ka; antibiotic 500 µM, HSA 6x10^-4 M assumed
[28] = target: N,N′-diacetyl-Lys-D-Ala-D-Ala; test: ITC, 10 C, HSA 0 µM
[29] = target: N,N′-diacetyl-Lys-D-Ala-D-Ala; remark: listed apart in the source
[30] = target: N,N′-diacetyl-Lys-D-Ala-D-Ala; test: ITC, 37 C, no HSA, average
[31] = target: Human serum albumin (human) (UniProt P02768); test: ITC, 37 C, single-site model
Dog albumin (dog) [32] = target: Dog albumin (dog) (UniProt P49822); test: ITC, 37 C, single-site model
Rat albumin (rat) [33] = target: Rat albumin (rat) (UniProt P02770); test: ITC, 37 C, single-site model
[34] = target: Human α-glycoprotein (human) (UniProt P02763); test: ITC, 37 C, single-site model
[35] = target: N,N′-diacetyl-Lys-D-Ala-D-Ala; test: ITC, 25 C, HSA 34.2 µM present
[36] = target: Human α-glycoprotein (human) (UniProt P02763); test: calculated from ITC Ka; antibiotic 10 µM, α-glycoprotein 1.5x10^-5 M assumed
[37] = target: N,N′-diacetyl-Lys-D-Ala-D-Ala; test: ITC, 25 C, HSA 0 µM
[38] = target: N,N′-diacetyl-Lys-D-Ala-D-Ala; test: ITC, 25 C, HSA 513 µM present
[39] = target: N,N′-diacetyl-Lys-D-Ala-D-Ala; test: ITC, 25 C, asymptote of the non-competitive binding model
human α-glycoprotein = test: Protein binding by isothermal titration microcalorimetry; conditions: α-glycoprotein […]10^−5M
Procedure: (§1) Integrated heat effects, after correction for heats of dilution, were analyzed by non-linear regression using a simple single-site binding model with the standard Microcal ORIGIN software package. Raw data (μcal/sec) for each injection were integrated to give the total heat effect per addition, then divided by amount of injectant to give kcal/mole of injectant. The same integration was applied for control dilution effects, and this was subtracted from the actual titration data. This provided a differential of the binding curve in which the extent of binding is proportional to the total heat liberated (or absorbed). This was then analyzed by non-linear regression methods in terms of various standard binding models.

human albumin = human albumin (Homo sapiens, UniProt P02768); test: as above
Procedure: as §1

Substance: Dalbavancin (peptide)
- Kd [1]: 1 to 10 µM
- Ka [2]: 135000 M⁻¹
- Ka (Dog albumin (dog) [3]): 62000 M⁻¹
- Ka (Rat albumin (rat) [4]): 310000 M⁻¹
- Ka (Bovine albumin (bovine)): 138000 M⁻¹
- Ka [5]: 184000 M⁻¹
- Ka [6]: 118000 M⁻¹
- Kd [6]: 8.47 µM
- ΔH [6]: -27.8 kcal/mol and -26.4 kcal/mol
- ΔS [6]: -70.1 eu and -65.5 eu
- calculated percent bound [7]: 73%
- calculated percent bound [8]: 98.7%
- Kd [9]: 3.1 µM
- calculated percent bound [10]: 26.2%
- Ka [11]: 130000 M⁻¹ and 110000 M⁻¹
- Kd [11]: 7.69 µM and 9.09 µM
- ΔH [11]: -12.5 kcal/mol and -17.4 kcal/mol
- ΔS [11]: -16.8 eu and -33.2 eu
- calculated percent bound [12]: 11.4%
- Ka [13]: 34900 M⁻¹
- Kd [13]: 28.7 µM
- ΔH [13]: -18.6 kcal/mol
- ΔS [13]: -41.7 eu
- Ka [14]: 21800 M⁻¹
- Kd [14]: 45.9 µM
- ΔH [14]: -15 kcal/mol
- ΔS [14]: -30.4 eu
- calculated percent bound [15]: 98.8%
- Ka [16]: 31000 M⁻¹
- Kd [16]: 32.3 µM
- ΔH [16]: -21.1 kcal/mol
- ΔS [16]: -50 eu
- Ka [17]: 9570 M⁻¹
- Kd [17]: 105 µM
- ΔH [17]: -26.6 kcal/mol
- ΔS [17]: -67.6 eu
- calculated percent bound [18]: 98.6%
- calculated percent bound [19]: 98.8%
- Kd [20]: 1.4 µM
- calculated percent bound [21]: 5.9%
- Ka [22]: 12500 M⁻¹
- Kd [22]: 80 µM
- ΔH [22]: -98.6 kcal/mol
- ΔS [22]: -299 eu
- calculated percent bound [23]: 16.9%
- Ka [24]: 28400 M⁻¹
- Kd [24]: 35.2 µM
- ΔH [24]: -19.5 kcal/mol
- ΔS [24]: -44.9 eu
- calculated percent bound [25]: 98.5%
- Kd [26]: 35 µM
- calculated percent bound [27]: 98%
- ΔH [28]: -10.3 kcal/mol (2×) and -8.95 kcal/mol
- ΔS [28]: -9.6 eu and -4.3 eu and -9.9 eu
- Ka [29]: 27600 M⁻¹
- Kd [29]: 36.2 µM
- ΔH [29]: -16.9 kcal/mol
- ΔS [29]: -36.5 eu
- Kd [30]: 8.4 µM
- Ka [31]: 133000 M⁻¹
- Ka (Dog albumin (dog) [32]): 50000 M⁻¹
- Ka (Rat albumin (rat) [33]): 280000 M⁻¹
- Ka [34]: 480000 M⁻¹
- Ka [35]: 35000 M⁻¹
- Kd [35]: 28.6 µM
- ΔH [35]: -20 kcal/mol
- ΔS [35]: -46.2 eu
- calculated percent bound [36]: 68.2%

Substance: Teicoplanin (peptide)
- Ka [2]: 96000 M⁻¹
- Ka [5]: 7000 M⁻¹
- calculated percent bound [7]: 9.6%
- calculated percent bound [8]: 98%
- calculated percent bound [10]: 6%
- calculated percent bound [15]: 98.3%
- calculated percent bound [19]: 98.3%
- calculated percent bound [36]: 9.1%

Substance: Vancomycin hydrochloride (Sigma V-2002, fw 1485.7) (peptide)
- Ka [37]: 340000 M⁻¹ and 360000 M⁻¹
- Kd [37]: 2.94 µM and 2.78 µM
- ΔH [37]: -10.7 kcal/mol and -12.9 kcal/mol
- ΔS [37]: -10.6 eu and -17.8 eu
- Ka [38]: 290000 M⁻¹
- Kd [38]: 3.45 µM
- ΔH [38]: -10.1 kcal/mol
- ΔS [38]: -8.8 eu
- Ka [28]: 690000 M⁻¹
- Kd [28]: 1.45 µM
- ΔH [28]: -9.49 kcal/mol
- ΔS [28]: -6.8 eu

Substance: dalbavancin-HSA complex (from UniProt P02768 25-609)
- Kd [39]: 35 µM

Substance: Teicoplanin [reference compound]
- Calculated percent binding (human α-glycoprotein; antibiotic 1 μM): 9.6%
- Calculated percent binding (human α-glycoprotein; antibiotic 10 μM): 9.1%
- Calculated percent binding (human α-glycoprotein; antibiotic 100 μM): 6.0%
- binding stoichiometry modeling (drug:protein) (human albumin): 1:1 binding
- Calculated percent binding (human albumin; antibiotic 100 μM, human serum albumin 6×10^−4 M): 98.0%
